From the RNAGym collection of RNA variant scans (doi:10.1093/molbev/msab373)

B1: Azoarcus group I ribozyme (parent)
chain: GUGCCUUGCGCCGGGAAACCACGCAAGGGAUGGUGUCAAAUUCGGCGAAACCUAAGCGCCCGCCCGGGCGUAUGGCAACGCCGAGCCAAGCUUCGGCGCCUGCGCCGAUGAAGGUGUAGAGACUAGACGGCACCCACCUAAGGCAAACGCUAUGGUGAAGGCAUAGUCCAGGGAGUGGCGAAAGUCACACAAACCGG

Variants of: B1
Experiment: reverse-splicing fitness (ratio to wild type); higher = more active; in vitro selection; Mg2+ level not given
Summary of the method: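 An in vitro group I ribozyme library with randomized positions was T7-transcribed and gel-purified. In triplicate, 10 pmol RNA in EPPS pH 7.5 was reacted with 50 pmoles of a 30-nt RNA substrate for 1 h at 37 °C across several added MgCl2 levels (1–48 mM), then stopped with EDTA. Products were reverse transcribed from a substrate-complementary primer, PCR-amplified and sequenced (HiSeq 4000). Fitness is a variant's read proportion after selection over that before, normalised to wild type.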

Going from GUGCCUUGCGCCGGGAAACCACGCAAGGGAUGGUGUCAAAUUCGGCGAAACCUAAGCGCCCGCCCGGGCGUAUGGCAACGCGGAGCCAAGCUUCGGCGCCUGCGCCGAUGGAGGUGUAGGGACUAGACGGCACCCACCUAAGGCCAACGGUAUGGUGAAGGCAUAGUCCAGGGAGGGGCGAAAGUCACACAAACCGG [C82G A111G A120G A145C C150G U176G] to GUGCCUUGCGCCGGGAAACCACGCAAGGGAUGGUGUCAAAUUCGGCGAAACCUAAGCGCCCGCCCGGGCGUAUGGCAACGCGGAGCCAAGCUUCGGCGCCUGCGCCGAUGGAGGUGUAGGGACUAGACGGCACCCACCUAAGGCCAACGGUAUGGUGAAGGCAUAGUCCAGGGAGAGGCGAAAGUCACACAAACCGG [C82G A111G A120G A145C C150G U176A], the reverse-splicing fitness rises from 0.00368 to 0.0082.

First: GUGCCUUGCGCCGGGAAACCACGCAAGGGAUGGUGUCAAAUUCGGCGAAACCUAAGCGCCCGCCCGGGCGUAUGGCAACGCGGAGCCAAGCUUCGGCGCCUGCGCCGAUGGAGGUGUAGGGACUAGACGGCACCCACCUAAGGCCAACGGUAUGGUGAAGGCAUAGUCCAGGGAGCGGCGAAAGUCACACAAACCGG [C82G A111G A120G A145C C150G U176C]
Second: GUGCCUUGCGCCGGGAAACCACGCAAGGGAUGGUGUCAAAUUCGGCGAAACCUAAGCGCCCGCCCGGGCGUAUGGCAACGCGGAGCCAAGCUUCGGCGCCUGCGCCGAUGGAGGUGUAGGGACUAGACGGCACCCACCUAAGGCCAACGGUAUGGUGAAGGCAUAGUCGAGGGAGGGGCGAAAGUCACACAAACCGG [C82G A111G A120G A145C C150G C169G U176G]
The reverse-splicing fitness of the first is higher: 0.0133 for the first, 0.00523 for the second.

Going from GUGCCUUGCGCCGGGAAACCACGCAAGGGAUGGUGUCAAAUUCGGCGAAACCUAAGCGCCCGCCCGGGCGUAUGGCAACGCGGAGCCAAGCUUCGGCGCCUGCGCCGAUGGAGGUGUAGGGACUAGACGGCACCCACCUAAGGCCAACGGUAUGGUGAAGGCAUAGUCGAGGGAGAGGCGAAAGUCACACAAACCGG [C82G A111G A120G A145C C150G C169G U176A] to GUGCCUUGCGCCGGGAAACCACGCAAGGGAUGGUGUCAAAUUCGGCGAAACCUAAGCGCCCGCCCGGGCGUAUGGCAACGCGGAGCCAAGCUUCGGCGCCUGCGCCGAUGGAGGUGUAGGGACUAGACGGCACCCACCUAAGGCCAACGGUAUGGUGAAGGCAUAGUCGAGGGAGCGGCGAAAGUCACACAAACCGG [C82G A111G A120G A145C C150G C169G U176C], the reverse-splicing fitness falls from 0.00914 to 0.00887.

First: GUGCCUUGCGCCGGGAAACCACGCAAGGGAUGGUGUCAAAUUCGGCGAAACCUAAGCGCCCGCCCGGGCGUAUGGCAACGCGGAGCCAAGCUUCGGCGCCUGCGCCGAUGGAGGUGUAGGGACUAGACGGCACCCACCUAAGGCCAACGUUAUGGUGAAGGCAUAGUCGAGGGAGCGGCGAAAGUCACACAAACCGG [C82G A111G A120G A145C C150U C169G U176C]
Second: GUGCCUUGCGCCGGGAAACCACGCAAGGGAUGGUGUCAAAUUCGGCGAAACCUAAGCGCCCGCCCGGGCGUAUGGCAACGCGGAGCCAAGCUUCGGCGCCUGCGCCGAUGGAGGUGUAGGGACUAGACGGCACCCACCUAAGGCCAACGUUAUGGUGAAGGCAUAGUCGAGGGAGAGGCGAAAGUCACACAAACCGG [C82G A111G A120G A145C C150U C169G U176A]
The reverse-splicing fitness of the first is lower: 0.0155 for the first, 0.022 for the second.

Going from GUGCCUUGCGCCGGGAAACCACGCAAGGGAUGGUGUCAAAUUCGGCGAAACCUAAGCGCCCGCCCGGGCGUAUGGCAACGCGGAGCCAAGCUUCGGCGCCUGCGCCGAUGGAGGUGUAGGGACUAGACGGCACCCACCUAAGGCCAACGUUAUGGUGAAGGCAUAGUCGAGGGAGGGGCGAAAGUCACACAAACCGG [C82G A111G A120G A145C C150U C169G U176G] to GUGCCUUGCGCCGGGAAACCACGCAAGGGAUGGUGUCAAAUUCGGCGAAACCUAAGCGCCCGCCCGGGCGUAUGGCAACGCGGAGCCAAGCUUCGGCGCCUGCGCCGAUGGAGGUGUAGGGACUAGACGGCACCCACCUAAGGCCAACGGUAUGGUGAAGGCAUAGUCGAGGGAGUGGCGAAAGUCACACAAACCGG [C82G A111G A120G A145C C150G C169G], the reverse-splicing fitness rises from 0.00557 to 0.00841.

First: GUGCCUUGCGCCGGGAAACCACGCAAGGGAUGGUGUCAAAUUCGGCGAAACCUAAGCGCCCGCCCGGGCGUAUGGCAACGCGGAGCCAAGCUUCGGCGCCUGCGCCGAUGGAGGUGUAGGGACUAGACGGCACCCACCUAAGGCCAACGGUAUGGUGAAGGCAUAGUCUAGGGAGUGGCGAAAGUCACACAAACCGG [C82G A111G A120G A145C C150G C169U]
Second: GUGCCUUGCGCCGGGAAACCACGCAAGGGAUGGUGUCAAAUUCGGCGAAACCUAAGCGCCCGCCCGGGCGUAUGGCAACGCGGAGCCAAGCUUCGGCGCCUGCGCCGAUGGAGGUGUAGGGACUAGACGGCACCCACCUAAGGCCAACGUUAUGGUGAAGGCAUAGUCCAGGGAGCGGCGAAAGUCACACAAACCGG [C82G A111G A120G A145C C150U U176C]
The reverse-splicing fitness of the first is lower: 0.00843 for the first, 0.0149 for the second.

Compared with GUGCCUUGCGCCGGGAAACCACGCAAGGGAUGGUGUCAAAUUCGGCGAAACCUAAGCGCCCGCCCGGGCGUAUGGCAACGCGGAGCCAAGCUUCGGCGCCUGCGCCGAUGGAGGUGUAGGGACUAGACGGCACCCACCUAAGGCCAACGUUAUGGUGAAGGCAUAGUCCAGGGAGAGGCGAAAGUCACACAAACCGG [C82G A111G A120G A145C C150U U176A], GUGCCUUGCGCCGGGAAACCACGCAAGGGAUGGUGUCAAAUUCGGCGAAACCUAAGCGCCCGCCCGGGCGUAUGGCAACGCGGAGCCAAGCUUCGGCGCCUGCGCCGAUGGAGGUGUAGGGACUAGACGGCACCCACCUAAGGCCAACGUUAUGGUGAAGGCAUAGUCCAGGGAGGGGCGAAAGUCACACAAACCGG [C82G A111G A120G A145C C150U U176G] is lower in reverse-splicing fitness: 0.0118 for the first, 0.00599 for the second.

Work on GUGCCUUGCGCCGGGAAACCACGCAAGGGAUGGUGUCAAAUUCGGCGAAACCUAAGCGCCCGCCCGGGCGUAUGGCAACGCGGAGCCAAGCUUCGGCGCCUGCGCCGAUGGAGGUGUAGGGACUAGACGGCACCCACCUAAGGCCAACGUUAUGGUGAAGGCAUAGUCAAGGGAGCGGCGAAAGUCACACAAACCGG [C82G A111G A120G A145C C150U C169A U176C] yielded a reverse-splicing fitness of 0.00841.
